Key:
[1] = target: native (naturally occurring) human IL-13 released from HDLM-2 cells (human) (UniProt P35225); assay: cell-based or functional assay
[2] = target: human IL-13 (recombinant, bacterially derived, Peprotech) (human) (UniProt P35225); assay: cell-based or functional assay
human IL-13 (recombinant, bacterially derived, Peprotech) (human), sequence (P35225 other isoform, or with tags, fused parts or gaps): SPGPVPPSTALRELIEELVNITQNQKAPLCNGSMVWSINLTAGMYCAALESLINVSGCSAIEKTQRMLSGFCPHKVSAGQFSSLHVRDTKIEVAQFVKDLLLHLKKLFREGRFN

native (naturally occurring) human IL-13 released from HDLM-2 cells (human), sequence (P35225 other isoform, or with tags, fused parts or gaps): as above

An IC50, HDLM-2 cell proliferation assay [1] of 16.7 nM, an IC50, TF-1 cell proliferation assay [2] of 1.02 nM and an IC50, eotaxin release from NHLF [2] of 0.219 nM were found for “B-B13 (commercial anti-human IL-13 antibody, mouse IgG1, Euroclone)” in this work.

An IC50, HDLM-2 cell proliferation assay [1] of 10.7 nM, an IC50, TF-1 cell proliferation assay [2] of 0.471 nM and an IC50, eotaxin release from NHLF [2] of 0.623 nM were found for “JES10-5A2 (commercial anti-human IL-13 antibody, rat IgG1, Biosource)” in this work.
